Results: PMC3868556

How the values were obtained:
[1] = system: T1, ComPsub (Neisseria subflava), UPI00280B593C; experiment: EMSA; settings: SPR (ProteOn XPR36, NLC chip): 25 mM HEPES pH 7.9, 150 mM NaCl, 2.5 mM MgCl2, 0.05% Tween-20, 25 C, 30 uM ComP; EMSA: native 10% acrylamide, LightShift kit …
T1 sequence: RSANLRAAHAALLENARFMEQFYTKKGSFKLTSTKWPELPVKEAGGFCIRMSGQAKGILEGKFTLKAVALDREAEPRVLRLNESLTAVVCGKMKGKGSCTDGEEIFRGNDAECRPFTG

[2] = system: ComP (Neisseria meningitidis 8013 (serogroup C clinical isolate)); experiment: SPR; settings: SPR (ProteOn XPR36, NLC chip): 25 mM HEPES pH 7.9, 150 mM NaCl, 2.5 mM MgCl2, 0.05% Tween-20, 25 C, 30 uM ComP; EMSA: native 10% acrylamide, LightShift kit …

| Sequence | binding [1] | binding signal [2] |
| --- | --- | --- |
| GTATGGGCGGCTCGGCGTTTGGTCAGGTGTACAACAATATGAGCGGCGACGCGCCCGATTTGGACGATACAGGCCGTCTGAAAGACTTTTACGGCGTGATTCAACAGCTTGTCGCCGAAGACAAACTCTTGGCGTATCACGACCGCAGCGAC (double strand) [purL fragment with one DUSvar1] | binds | – |
| TGACCATGCCGTCTGAACAAAC (double strand) [DUS] | – | 100 % of DUS Req |
